{
  "source": "paper PMC6978808",
  "about": "“In Situ Structure of an Intact Lipopolysaccharide-Bound Bacterial Surface Layer” (Cell, 2020)",
  "proteins": {"B1": {"name": "N-terminal domain of RsaA (RsaANTD) (domain or fragment, Caulobacter crescentus)", "chain": "AYTTAQLVTAYTNANLGKAPDAATTLTLDAYATQTQTGGLSDAAALTNTLKLVNSTTAVAIQTYQFFTGVAPSAAGLDFLVDSTTNTNDLNDAYYSKFAQENRFINFSINLATGAGAGATAFAAAYTGVSYAQTVATAYDKIIGNAVATAAGVDVAAAVAFLSRQANIDYLTAFVRANTPFTAAADIDLAVKAALIGTILNAATVSGIGGYATATAAMINDLSDGALSTDNAAGVNLFTAYPSSGVSGSEN", "notes": "S-layer protein RsaA of Caulobacter crescentus (1026 residues), N-terminal domain; the introduction defines RsaANTD as residues 1-249; residues 2-243 are built in the cryo-EM model; Cleavage by TEV protease after Gln would leave Glu-Asn-Leu-Tyr-Phe-Gln; also called inner domain of the S-layer; source: C. crescentus rsaATEV250 strain"}},
  "key": {"[1]": {"target": "the molecule itself", "assay": "cryo-EM structure; single-particle cryo-EM of the purified RsaANTD:PS complex, 3.7 Å; PS and Ca2+ bound"}, "[2]": {"target": "the molecule itself", "assay": "native MS; purified RsaANTD:PS complex with Ca2+; Q-Exactive UHMR; tandem MS (HCD 220 V) to assign the oligomers"}, "[3]": {"target": "the molecule itself", "assay": "native MS; RsaANTD:PS sample after removal of Ca2+ on Zeba micro spin desalting columns"}},
  "note": "“And” between values parts separate entries of the source, which are not always exact repeats. Identical values can stand only once.",
  "data": [
    {"protein": "B1", "values": [
      {"measurement": "stoichiometry N", "setting": "[1]", "result": "21 and 20"},
      {"measurement": "stoichiometry N", "setting": "[2]", "result": 2},
      {"measurement": "stoichiometry N", "setting": "[3]", "result": 4}
    ]}
  ]
}
